FireProtDB (doi:10.3390/ijms21030752)

B1: Guanylyl cyclase-activating protein 1, P43080 (parent)
chain: MGNVMEGKSVEELSSTECHQWYKKFMTECPSGQLTLYEFRQFFGLKNLSPSASQYVEQMFETFDFNKDGYIDFMEYVAALSLVLKGKVEQKLRWYFKLYDVDGNGCIDRDELLTIIQAIRAINPCSDTTMTAEEFTDTVFSKIDVNGDGELSLEEFIEGVQKDQMLLDTLTRSLDLTRIVRRLQNGEQDEEGADEAAEAAG

Variants of: B1
Conditions: Homo sapiens, pH 7.5, Thermal, CD, Tris-HCl 20mM, whole UniProt chain shown

G86R
Tm (KCL 150 mM): 41.6 °C | change of melting temperature, mutant - wild type (higher = more stable) (KCL 150 mM): -8.2 °C | Tm (KCL and Mg2+ 150 mM and 1 mM): 46.8 °C | change of melting temperature, mutant - wild type (higher = more stable) (KCL and Mg2+ 150 mM and 1 mM): -3.5 °C

G86R W94F
Tm (KCL 150 mM): 40.6 °C | change of melting temperature, mutant - wild type (higher = more stable) (KCL 150 mM): -9.2 °C | Tm (KCL and Mg2+ 150 mM and 1 mM): 47.8 °C | change of melting temperature, mutant - wild type (higher = more stable) (KCL and Mg2+ 150 mM and 1 mM): -2.5 °C

G86R W94L
Tm (KCL 150 mM): 42 °C | change of melting temperature, mutant - wild type (higher = more stable) (KCL 150 mM): -7.8 °C | Tm (KCL and Mg2+ 150 mM and 1 mM): 47 °C | change of melting temperature, mutant - wild type (higher = more stable) (KCL and Mg2+ 150 mM and 1 mM): -3.3 °C
